Patent US11708418

Experiments:
[1] = target: Daratumumab (Darzalex; lot GHS0901, Janssen, USA); experiment: anti-CD38 (DARATUMUMAB) inhibition IAT, ability to titrate the antibody, CD38ecd-Fc-10H as reference
[2] = target: Daratumumab (Darzalex; lot GHS0901, Janssen, USA); experiment: IAT inhibition; 25 µl Darzalex dilution with 2 µl of 8.5 mg/ml protein

Chain of CD38ecd-flex-Fc-10H (P28907 45-300): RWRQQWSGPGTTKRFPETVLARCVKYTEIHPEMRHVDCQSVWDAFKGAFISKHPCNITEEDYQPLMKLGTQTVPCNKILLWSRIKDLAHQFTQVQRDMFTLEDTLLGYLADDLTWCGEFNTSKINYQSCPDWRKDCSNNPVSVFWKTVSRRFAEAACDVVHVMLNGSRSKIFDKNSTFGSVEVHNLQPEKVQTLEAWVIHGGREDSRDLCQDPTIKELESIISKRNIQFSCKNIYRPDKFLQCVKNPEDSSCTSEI
Chain of CD38ecd-Fc (P28907 45-300 limits assumed): as the sequence (P28907 45-300) above

| Substance | Functionality [1] [%] | anti-CD38 concentration completely inhibited [2] [mg/mL] |
| --- | --- | --- |
| CD38ecd-Fc (from UniProt P28907 45-300) (Fc fusion) | 50 | – |
| CD38ecd-flex-Fc-10H (from UniProt P28907 45-300) (Fc fusion) | 100 | 0.125 |
